# Data taken from US20130066046A1.
# Columns and labels:
# [1] = target: human serum albumin (human) (UniProt P02768); experiment: SPR (Biacore), HSA immobilised on CM5 chip, 40 nM, mean+/-SD, N=4
# [2] = target: human serum albumin (human) (UniProt P02768); experiment: annotation in the curve's label on the competitive ELISA plot; the sheet does not say how this Kd was obtained (text paragraph 46 speaks of a reported Kd ~1x10^-9 M)
# [3] = target: human serum albumin (human) (UniProt P02768); experiment: competitive ELISA: soluble binding protein competes with plate-immobilised single maximum moiety for biotinylated human serum albumin, streptavidin-peroxidase readout
# IgG (biotinylated) [4] = experiment: competitive ELISA, ratio against one maximum domain (Illustration 2.1)
# IgG (biotinylated) [5] = experiment: competitive ELISA, slope around the 50% inhibition point (Illustration 2.1)
# IgG (biotinylated) [6] = experiment: competitive ELISA, soluble protein against immobilised two-moiety cassette for biotinylated IgG (Illustration 2.1)
# [7] = target: human IgG (from human serum; human immunoglobin G standard); experiment: extraction from diluted human serum with coated silica beads, gel/blot comparison with standards (Illustration 2.2)
# [8] = target: human serum albumin (human) (UniProt P02768); experiment: SPR (Biacore), HSA immobilised on CM5 chip
# [9] = target: human serum albumin (human) (UniProt P02768); experiment: competitive ELISA, ratio against construct 1 (Illustration 1.2)
# [10] = target: human serum albumin (human) (UniProt P02768); experiment: SPR (Biacore), HSA immobilised on CM5 chip, limited number of replicates
# [11] = target: human serum albumin (human) (UniProt P02768); experiment: competitive ELISA, slope around the 50% inhibition point (Illustration 1.2)
# [12] = target: human serum albumin (human) (UniProt P02768); experiment: flow cytometry on beads, ratio against the single maximum moiety (Illustration 1.5)
# [13] = target: human serum albumin (human) (UniProt P02768); experiment: flow cytometry, binding protein immobilised on beads, fluorescein labeled albumin (Illustration 1.5)
# [14] = target: human serum albumin (human) (UniProt P02768); experiment: competitive ELISA, soluble construct against immobilised binding protein for biotinylated HSA (Illustration 1.2)
molecule,measurement,setting,value
"native material analogous to that of Sjöbring et al. (1991), streptococcal protein G",Kd,[1],0.7 nM
same,kon,[1],123000 M⁻¹ s⁻¹
same,Kd,[2],10 nM
same,IC50 (read off the curve) (pmoles per well),[3],10
functional cassette with two maximum moieties (six minimum moieties) for IgG (designed binder) LGIDPFTALPKTDTYKLILNGKTLKGETTTEAVDAATAEKVFKQYANDNGVDGEWTYDDATKTFTVTEKPEVIDASELTPAVTTYKLVINGKTLKGETTTEAVDAATAEKVFKQYANDNGVDGEWTYDDATKTFTVTEKPEVIDASELTPAVTTYKLVINGKTLKGETTTKAVDAETAEKAFKQYANDNGVDGVWTYDDATKTFTVTEMVTESRALPKTDTYKLILNGKTLKGETTTEAVDAATAEKVFKQYANDNGVDGEWTYDDATKTFTVTEKPEVIDASELTPAVTTYKLVINGKTLKGETTTEAVDAATAEKVFKQYANDNGVDGEWTYDDATKTFTVTEKPEVIDASELTPAVTTYKLVINGKTLKGETTTKAVDAETAEKAFKQYANDNGVDGVWTYDDATKTFTVTEMVTEKGELKLCITGDALVALPEGES,"R (ratio of 50% inhibition point, two maximum moieties / one maximum moiety)",IgG (biotinylated) [4],0.6
same,"S (ratio of rate of change, two maximum moieties / one maximum moiety)",IgG (biotinylated) [4],1.6
same,rate of change,IgG (biotinylated) [5],50
same,IC50,IgG (biotinylated) [6],1 nM
same,percent of IgG extracted,[7],> 99%
"Construct ""2"" (functional cassette with two maximum moieties for human serum albumin) (designed binder, part only; not given: spacer and terminal segment, not shown: small tags and cut ends) chain, part: AAALDQAKQAALKEFDRYGVSNYYKNLINKAKTVEGIMELQAQVVESAKKARISEATDGLSDFLKSQTSAEDTLKSIKLSEAKEMAIRELDAQGVSDFYKNKINNAKTVEGVVALKDLILNSLAAALDQAKQAALKEFDRYGVSNYYKNLINKAKTVEGIMELQAQVVESAKKARISEATDGLSDFLKSQTSAEDTLKSIKLSEAKEMAIRELDAQGVSDFYKNKINNAKTVEGVVALKDLILNSL",half-life,[8],7410 days
same,"R (ratio of 50% inhibition point, two maximum moieties / one maximum moiety)",[9],0.4
same,"S (ratio of rate of change, two maximum moieties / one maximum moiety)",[9],1.7
same,Kd,[10],< 0.01 nM
same,koff,[10],< 1e-05 s⁻¹
same,kon,[10],300000 M⁻¹ s⁻¹
same,rate of change,[11],8.5
same,"F (ratio of apparent Kd, two maximum moieties / one maximum moiety)",[12],0.67
same,Kd,[13],160 nM
same,IC50,[14],15 nM
